# ± gives the uncertainty stated by the source.
# Assay: self-splicing fitness, log relative to wild type (ln ratio); higher = more splicing; Tetrahymena group I intron in knt gene, E. coli kanamycin selection, DiMSum; sequences stand for … in CUCUCU…GGAGGGAAAAGUUAUCAGGCAUGCACCUGGUAGCUAGUCUUUAAACCAAUAGAUUGCAUCGGUUUAAAAGGCAAGACCGUCAAAUUGCGGGAAAGGGGUCAACAGCCGUUCAGUACCAAGUCUCAGGGGAAACUUUGAGAUGGCCUUGCAAAGGGUAUGGUAAUAAGCUGACGGACAUGGUCCUAACCACGCAGCCAAGUCCUAAGUCAACAGAUCUUCUGUUGAUAUGGAUGCAGUUCACAGACUAAAUGUCGGUCGGGGAAGAUGUAUUCUUCUCAUAAGAUAUAGUCGGACCUCUCCUUAAUGGGAGCUAGCGGAUGAAGUGAUGCAACACUGGAGCCGCUGGGAACUAAUUUGUAUGCGAAAGUAUAUUGAUUAGUUUUGGAGUACUCGUGGUCG
# In short: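 Fitness was computed with DiMSum as the error-weighted combination of replicate fold changes, kanamycin versus none, each normalised to wild type. The library randomised all eight intron nucleotides of the P1ex region, with the intron placed in the knt kanamycin-resistance gene on pET-22b(+) in E. coli BL21(DE3). Six replicate transformations were grown overnight at 37°C or 30°C on LB agar with or without 25 μg/mL kanamycin, plus 100 μg/mL carbenicillin, 50 μM IPTG and 0.2% rhamnose. Pooled colonies were amplicon-sequenced on an Illumina HiSeq 2500.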
Sequence,self-splicing fitness (ln) (30 °C),self-splicing fitness (ln) (37 °C)
CGUAAGCAAUAUUACGCCCG,-1.93 ± 0.18,-0.621 ± 0.23
CGUAAGCAAUAUUACGCUAG,-2.48 ± 0.13,-0.429 ± 0.14
CGUAAGCAAUAUUACGGACU,-0.0269 ± 0.14,-0.0508 ± 0.14
CGUAAGCAAUAUUACGGAGA,-2.79 ± 0.24,-2.28 ± 0.29
CGUAAGCAAUAUUACGGAUA,–,-2.1 ± 0.38
CGUAAGCAAUAUUACGGGCA,-3.24 ± 0.23,-1.09 ± 0.14
CGUAAGCAAUAUUACGGUGG,-1.48 ± 0.082,-1.25 ± 0.11
CGUAAGCAAUAUUACGUAAC,-4.35 ± 0.26,-2.51 ± 0.21
CGUAAGCAAUAUUACGUCAG,-1.56 ± 0.11,0.0936 ± 0.11
CGUAAGCAAUAUUACGUGCA,-0.906 ± 0.086,0.102 ± 0.096
CGUAAGCAAUAUUACGUGGG,-3.43 ± 0.16,-2.67 ± 0.15
CGUAAGCAAUAUUACGUUGC,-2.73 ± 0.22,-1.81 ± 0.29
CGUCAGCAAUAUUACGAACA,-0.807 ± 0.078,0.843 ± 0.12
CGUCAGCAAUAUUACGAGUA,-2.55 ± 0.28,-2.69 ± 0.39
CGUCAGCAAUAUUACGAGUC,–,-1.18 ± 0.18
CGUCAGCAAUAUUACGAGUU,-3.3 ± 0.22,-1.84 ± 0.22
CGUCAGCAAUAUUACGAUAA,-1.1 ± 0.14,0.157 ± 0.12
CGUCAGCAAUAUUACGCAAA,-2.96 ± 0.17,-1.12 ± 0.16
CGUCAGCAAUAUUACGCAGA,-2.79 ± 0.46,-3.76 ± 0.46
CGUCAGCAAUAUUACGCGGA,–,-3.17 ± 0.32
CGUCAGCAAUAUUACGGAAG,-0.632 ± 0.088,0.304 ± 0.12
CGUCAGCAAUAUUACGGACU,-0.14 ± 0.09,0.0847 ± 0.089
CGUCAGCAAUAUUACGGGGA,-2.96 ± 0.16,-1.91 ± 0.14
CGUCAGCAAUAUUACGGUCG,-2.52 ± 0.11,-2 ± 0.15
CGUCAGCAAUAUUACGGUCU,-0.849 ± 0.079,-0.828 ± 0.1

Sequence,self-splicing fitness (ln) (30 °C),self-splicing fitness (ln) (37 °C)
CGUCAGCAAUAUUACGGUUG,-0.45 ± 0.065,-0.256 ± 0.081
CGUCAGCAAUAUUACGUCAC,–,-1.42 ± 0.26
CGUCAGCAAUAUUACGUCAU,-3.73 ± 0.19,-2.59 ± 0.16
CGUCAGCAAUAUUACGUUCA,-1.26 ± 0.082,-0.74 ± 0.087
CGUGAGCAAUAUUACGAACG,-2.89 ± 0.38,–
CGUGAGCAAUAUUACGAAGU,-3.6 ± 0.21,-2.41 ± 0.19
CGUGAGCAAUAUUACGACAA,–,-3.33 ± 0.25
CGUGAGCAAUAUUACGACUG,-0.73 ± 0.12,-0.0318 ± 0.16
CGUGAGCAAUAUUACGAGCC,–,-1.35 ± 0.41
CGUGAGCAAUAUUACGCACG,-3.19 ± 0.29,-2.94 ± 0.47
CGUGAGCAAUAUUACGCAUA,-3.2 ± 0.28,-1.18 ± 0.34
CGUGAGCAAUAUUACGCAUU,-4.1 ± 0.47,-2.15 ± 0.19
CGUGAGCAAUAUUACGCCUA,-1.86 ± 0.25,-0.88 ± 0.36
CGUGAGCAAUAUUACGGACG,-2.08 ± 0.22,-1.31 ± 0.38
CGUGAGCAAUAUUACGGUUA,-3.15 ± 0.33,-2.98 ± 0.29
CGUGAGCAAUAUUACGUAUU,-3.5 ± 0.4,-3.11 ± 0.35
CGUGAGCAAUAUUACGUGAU,-3.8 ± 0.24,-3.21 ± 0.23
CGUGAGCAAUAUUACGUUCG,-2.61 ± 0.15,-3.09 ± 0.28
CGUGAGCAAUAUUACGUUGU,-4.24 ± 0.26,-1.58 ± 0.17
CGUGAGCAAUAUUACGUUUU,-3.42 ± 0.16,-3.73 ± 0.37
CGUUAGCAAUAUUACGACAG,0.473 ± 0.14,-0.134 ± 0.15
CGUUAGCAAUAUUACGACUG,-0.369 ± 0.12,0.327 ± 0.14
CGUUAGCAAUAUUACGAUAG,-0.0326 ± 0.15,-0.211 ± 0.14
CGUUAGCAAUAUUACGAUCC,-1.74 ± 0.19,-0.851 ± 0.21
CGUUAGCAAUAUUACGAUCG,-0.9 ± 0.11,-1.12 ± 0.14

# From the supplement of paper PMC7877785
